The target in this assay is SafA_(Ntd1) (Salmonella enterica). In words: crystal structure.

We go through one substance from article PMC7617774.

In turn, SafA_(Ntd1) (domain or fragment) had a stoichiometry N of 2.

A word on the stoichiometry N: it is a count of units in the complex or per binding partner.
